Paper PMC3222871

Target: T1, human POT1 (human, UniProt Q9NUX5 1-634)
T1 sequence: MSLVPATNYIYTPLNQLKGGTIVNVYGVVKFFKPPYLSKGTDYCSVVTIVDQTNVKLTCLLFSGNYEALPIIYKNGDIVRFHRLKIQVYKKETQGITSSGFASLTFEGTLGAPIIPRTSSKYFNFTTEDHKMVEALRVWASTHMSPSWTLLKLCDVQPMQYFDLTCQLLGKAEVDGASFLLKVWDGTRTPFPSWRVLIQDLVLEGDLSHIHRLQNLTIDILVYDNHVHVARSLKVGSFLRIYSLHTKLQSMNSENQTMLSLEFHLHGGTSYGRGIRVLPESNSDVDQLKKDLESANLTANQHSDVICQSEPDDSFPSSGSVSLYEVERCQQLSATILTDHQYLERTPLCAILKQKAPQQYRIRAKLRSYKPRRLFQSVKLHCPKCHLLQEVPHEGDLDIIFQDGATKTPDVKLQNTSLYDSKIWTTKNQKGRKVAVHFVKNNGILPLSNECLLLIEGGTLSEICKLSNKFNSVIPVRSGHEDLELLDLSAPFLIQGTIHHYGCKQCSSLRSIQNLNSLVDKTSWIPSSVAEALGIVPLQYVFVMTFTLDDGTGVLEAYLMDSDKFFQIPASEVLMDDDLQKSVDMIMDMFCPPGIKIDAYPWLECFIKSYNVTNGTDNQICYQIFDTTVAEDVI
Assay: EMSA

Does TTTTTTTTTTTTTTTTTTTTTTTTTTTTTTTTTT (ssDNA) [dT34] bind?
Result: no binding
